Experimental findings from publication PMC2761280 are described below.

In general, Kd refers to the free concentration of one partner at which half of the binding sites on the other are occupied at equilibrium, for simple one-to-one binding. A lower Kd goes with a tighter complex.

Read-outs that look alike come from different tables or passages of the source.

Experiment in all cases: EMSA
Data set [1] concerns the target T1, POLGα (UniProt P54098 26-1239).
For data set [2], the target named is T2, POLGβ (his)10 (UniProt Q9UHN1 26-485).
T2 sequence: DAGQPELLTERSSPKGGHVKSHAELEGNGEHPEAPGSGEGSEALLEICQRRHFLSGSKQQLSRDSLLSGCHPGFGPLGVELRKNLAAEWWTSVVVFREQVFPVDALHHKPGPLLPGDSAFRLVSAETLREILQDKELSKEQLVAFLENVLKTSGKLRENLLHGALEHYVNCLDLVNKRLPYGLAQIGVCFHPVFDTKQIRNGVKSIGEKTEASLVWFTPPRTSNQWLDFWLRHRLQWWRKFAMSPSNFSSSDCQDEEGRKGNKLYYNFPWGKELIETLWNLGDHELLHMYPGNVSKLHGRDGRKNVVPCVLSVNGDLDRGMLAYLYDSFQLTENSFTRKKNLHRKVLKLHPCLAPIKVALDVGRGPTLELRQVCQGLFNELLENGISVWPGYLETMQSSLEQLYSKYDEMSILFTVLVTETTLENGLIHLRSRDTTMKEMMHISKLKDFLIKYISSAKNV

Data set [3] addresses T2, POLGβ (his)10. The source holds these as a separate data set.
Data set [4] has as its target T1, POLGα. This is another data set of the same source.

T1 sequence (P54098 26-1239): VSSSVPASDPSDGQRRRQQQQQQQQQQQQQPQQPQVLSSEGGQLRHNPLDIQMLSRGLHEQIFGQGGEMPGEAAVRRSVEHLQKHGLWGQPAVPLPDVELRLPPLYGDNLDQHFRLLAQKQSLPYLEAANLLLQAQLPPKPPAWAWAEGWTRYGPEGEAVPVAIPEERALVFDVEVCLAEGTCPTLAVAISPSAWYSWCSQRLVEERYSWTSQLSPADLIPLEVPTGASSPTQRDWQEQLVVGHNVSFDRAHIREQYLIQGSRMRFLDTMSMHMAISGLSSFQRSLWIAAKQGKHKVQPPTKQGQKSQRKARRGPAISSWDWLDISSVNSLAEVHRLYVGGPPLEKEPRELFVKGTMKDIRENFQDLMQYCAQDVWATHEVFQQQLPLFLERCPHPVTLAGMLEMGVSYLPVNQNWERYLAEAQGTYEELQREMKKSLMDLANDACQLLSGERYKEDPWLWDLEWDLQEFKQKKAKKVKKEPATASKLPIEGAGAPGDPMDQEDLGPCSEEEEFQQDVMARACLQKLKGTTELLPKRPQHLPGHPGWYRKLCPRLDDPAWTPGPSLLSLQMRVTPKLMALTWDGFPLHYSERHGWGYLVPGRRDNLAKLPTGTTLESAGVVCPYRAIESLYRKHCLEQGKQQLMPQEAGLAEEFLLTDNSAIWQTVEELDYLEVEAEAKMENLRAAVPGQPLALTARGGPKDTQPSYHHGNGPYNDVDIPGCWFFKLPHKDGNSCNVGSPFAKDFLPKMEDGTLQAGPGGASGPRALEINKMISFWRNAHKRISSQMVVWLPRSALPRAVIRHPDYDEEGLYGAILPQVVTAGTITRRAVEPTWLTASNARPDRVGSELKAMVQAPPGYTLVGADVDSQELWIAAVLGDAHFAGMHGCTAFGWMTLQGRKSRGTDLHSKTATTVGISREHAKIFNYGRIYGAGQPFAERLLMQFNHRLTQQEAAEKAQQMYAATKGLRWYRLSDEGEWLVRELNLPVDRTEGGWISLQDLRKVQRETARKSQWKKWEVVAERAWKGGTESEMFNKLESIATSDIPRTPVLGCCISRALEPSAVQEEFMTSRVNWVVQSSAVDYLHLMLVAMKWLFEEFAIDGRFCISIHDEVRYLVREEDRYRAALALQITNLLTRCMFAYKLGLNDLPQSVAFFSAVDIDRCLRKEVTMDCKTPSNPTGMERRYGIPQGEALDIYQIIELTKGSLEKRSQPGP

B1: oligonucleotide C (free ss oligo) (ssDNA)
DNA: ACCGCTATGTATTTCGTACATTACTGCCAGCCACCATGAATATTGTACGGTACCATAAATACTTGACCACCTGTAGTACATAAAAACCCAATCCACATCAAAACCCCCTCCCCATGCTTA
Consider B1, for which the binding result in the data set with POLGα [1] is reported as “binds”; with POLGβ (his)10 [2], “no binding”.
For CCGGTCGTACGGAAAACCTGTATTTTCAGGGCT (ssDNA) [33-mer ss oligonucleotide], the binding result with POLGβ (his)10 [3] is listed as “no binding”. In addition, in the data set with POLGα [4], the Kd was determined as 92 nM.
